Data: article PMC3807708

Assays:
[1] = target: extracellular domain of human interferon-γ receptor 1 (IFN-γ-Rx), mutant H222R (human) (UniProt P15260); experiment: SPR; His-tagged receptor immobilised on Ni2+-coated HTG chip; IFN-γ-SC as analyte; PBST; 35 °C; preliminary data of temperature dependency
[2] = target: extracellular domain of human interferon-γ receptor 1 (IFN-γ-Rx), mutant N70G (human) (UniProt P15260); experiment: as above
[3] = target: extracellular domain of human interferon-γ receptor 1 (IFN-γ-Rx), mutant N96W (human) (UniProt P15260); experiment: as above
[4] = target: extracellular domain of human interferon-γ receptor 1 (IFN-γ-Rx), mutant S95R (human) (UniProt P15260); experiment: as above
[5] = target: extracellular domain of human interferon-γ receptor 1 (IFN-γ-Rx), wild type (human) (UniProt P15260); experiment: as above
IFN-γ-Rx H222D (human) = IFN-γ-Rx H222D (human) (UniProt P15260); experiment: SPR; ProteOn XPR36; His-tagged receptor immobilised on Ni2+-activated HTG chip; IFN-γ-SC as analyte, 1.2 to 99 nM; PBST (PBS pH 7.4, 0.005% Tween20); 25°C; 1:1 Langmuir with drift model; doubly referenced
IFN-γ-Rx K115Y (human) = IFN-γ-Rx K115Y (human) (UniProt P15260); experiment: as above
IFN-γ-Rx N65R (human) = IFN-γ-Rx N65R (human) (UniProt P15260); experiment: as above
IFN-γ-Rx N70G (human) = IFN-γ-Rx N70G (human) (UniProt P15260); experiment: as above
[6] = target: IFN-γ-Rx N70G + S95R (human) (UniProt P15260); experiment: as above
[7] = target: IFN-γ-Rx N70G + S95R + H222R (human) (UniProt P15260); experiment: as above
IFN-γ-Rx N96F (human) = IFN-γ-Rx N96F (human) (UniProt P15260); experiment: as above
IFN-γ-Rx S95R (human) = IFN-γ-Rx S95R (human) (UniProt P15260); experiment: as above
[8] = target: IFN-γ-Rx S95R + H222R (human) (UniProt P15260); experiment: as above
IFN-γ-Rx T166M (human) = IFN-γ-Rx T166M (human) (UniProt P15260); experiment: as above
[9] = target: extracellular domain of human interferon-γ receptor 1 (IFN-γ-Rx), wild type (human) (UniProt P15260); experiment: as above

With “single-chain form of human interferon-γ (IFN-γ-SC) (ligand)” the Kd [1] was 103 nM, the Kd [2] was 77 nM and the Kd [3] was 24.3 nM. It also gave a Kd [4] of 153 nM, a Kd [5] of 92.8 nM and a fold change of Kd against WT (IFN-γ-Rx H222D (human)) of 2.2 fold. The Kd (IFN-γ-Rx K115Y (human)) was 39.9 nM, the koff (IFN-γ-Rx K115Y (human)) was 0.0391 s⁻¹ and the kon (IFN-γ-Rx K115Y (human)) was 979000 M⁻¹ s⁻¹. For the same substance, the Kd (IFN-γ-Rx N65R (human)) was 71.2 nM, the koff (IFN-γ-Rx N65R (human)) was 0.0628 s⁻¹ and the kon (IFN-γ-Rx N65R (human)) was 882000 M⁻¹ s⁻¹. It also gave a Kd (IFN-γ-Rx N70G (human)) of 23.6 nM, a koff (IFN-γ-Rx N70G (human)) of 0.0264 s⁻¹ and a kon (IFN-γ-Rx N70G (human)) of 1.12e+06 M⁻¹ s⁻¹. For the same substance, the Kd [6] was 55.9 nM, the koff [6] was 0.0494 s⁻¹ and the kon [6] was 889000 M⁻¹ s⁻¹. For the same substance, the Kd [7] was 37 nM, the koff [7] was 0.0401 s⁻¹ and the kon [7] was 1.09e+06 M⁻¹ s⁻¹. For the same substance, the Kd (IFN-γ-Rx N96F (human)) was 28 nM, the koff (IFN-γ-Rx N96F (human)) was 0.0283 s⁻¹ and the kon (IFN-γ-Rx N96F (human)) was 1.01e+06 M⁻¹ s⁻¹. The Kd (IFN-γ-Rx S95R (human)) was 69.8 nM, the koff (IFN-γ-Rx S95R (human)) was 0.0454 s⁻¹ and the kon (IFN-γ-Rx S95R (human)) was 650000 M⁻¹ s⁻¹. It also gave a Kd [8] of 56.3 nM, a koff [8] of 0.059 s⁻¹ and a kon [8] of 1.05e+06 M⁻¹ s⁻¹. For the same substance, the Kd (IFN-γ-Rx T166M (human)) was 68.5 nM, the koff (IFN-γ-Rx T166M (human)) was 0.0639 s⁻¹ and the kon (IFN-γ-Rx T166M (human)) was 933000 M⁻¹ s⁻¹. For the same substance, the Kd [9] was 30.8 nM, the koff [9] was 0.0378 s⁻¹ and the kon [9] was 1.24e+06 M⁻¹ s⁻¹.
